Target: G-Actin protein

B1: Mus AChE protein (AChE 1-548AA, mouse) (protein)
chain: EGREDPQLLVRVRGGQLRGIRLKAPGGPVSAFLGIPFAEPPVGSRRFMPPEPKRPWSGVLDATTFQNVCYQYVDTLYPGFEGTEMWNPNRELSEDCLYLNVWTPYPRPASPTPVLIWIYGGGFYSGAASLDVYDGRFLAQVEGAVLVSMNYRVGTFGFLALPGSREAPGNVGLLDQRLALQWVQENIAAFGGDPMSVTLFGESAGAASVGMHILSLPSRSLFHRAVLQSGTPNGPWATVSAGEARRRATLLARLVGCPPGGAGGNDTELIACLRTRPAQDLVDHEWHVLPQESIFRFSFVPVVDGDFLSDTPEALINTGDFQDLQVLVGVVKDEGSYFLVYGVPGFSKDNESLISRAQFLAGVRIGVPQASDLAAEAVVLHYTDWLHPEDPTHLRDAMSAVVGDHNVVCPVAQLAGRLAAQGARVYAYIFEHRASTLTWPLWMGVPHGYEIEFIFGLPLDPSLNYTTEERIFAQRLMKYWTNFARTGDPNDPRDSKSPQWPPYTTAAQQYVSLNLKP
In the case of B1, the “cleaving of plasmid DNA by AChE (agarose gel) after pre-incubation with G-Actin” value is reported as “it almost had no effect on cleaving ability of AChE on DNA”.

— patent publication US20140248254
